Source: publication PMC12768534 (2025)

How the values were obtained:
human IL-21 receptor = human IL-21 receptor (human, UniProt Q9HBE5 20-538); experiment: BLI
murine IL-21R = murine IL-21R (murine, UniProt Q9JHX3 20-529); experiment: BLI
[1] = molecular target: T1, human common cytokine receptor γ chain (human, UniProt P31785 23-369); experiment: BLI; in presence of hIL-21R (hIL-21R/hγc)
T1 chain: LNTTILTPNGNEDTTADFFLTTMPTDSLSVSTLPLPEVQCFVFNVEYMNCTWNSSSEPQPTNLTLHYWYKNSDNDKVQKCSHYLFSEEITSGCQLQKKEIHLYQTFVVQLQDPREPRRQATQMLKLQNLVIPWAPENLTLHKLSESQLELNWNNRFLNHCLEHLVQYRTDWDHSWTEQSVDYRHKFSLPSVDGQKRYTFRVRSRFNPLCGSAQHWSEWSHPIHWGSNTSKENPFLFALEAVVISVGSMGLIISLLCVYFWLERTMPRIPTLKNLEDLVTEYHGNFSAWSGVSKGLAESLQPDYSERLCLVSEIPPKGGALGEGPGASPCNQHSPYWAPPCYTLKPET

murine γc = molecular target: T2, murine γc (murine, UniProt P34902 23-369); experiment: BLI; in presence of mIL-21R (mIL-21R/mγc)
T2 chain: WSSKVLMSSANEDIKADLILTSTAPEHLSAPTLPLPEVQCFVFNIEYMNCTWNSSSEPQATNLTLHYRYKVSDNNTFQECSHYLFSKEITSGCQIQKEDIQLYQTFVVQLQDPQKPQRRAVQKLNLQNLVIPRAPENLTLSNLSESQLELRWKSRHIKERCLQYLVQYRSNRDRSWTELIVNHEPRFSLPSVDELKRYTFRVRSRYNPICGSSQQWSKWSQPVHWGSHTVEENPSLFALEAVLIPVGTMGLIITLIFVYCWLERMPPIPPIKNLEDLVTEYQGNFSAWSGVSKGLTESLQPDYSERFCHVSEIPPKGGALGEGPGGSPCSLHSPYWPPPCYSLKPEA

Sequence of human IL-21 receptor (Q9HBE5 20-538): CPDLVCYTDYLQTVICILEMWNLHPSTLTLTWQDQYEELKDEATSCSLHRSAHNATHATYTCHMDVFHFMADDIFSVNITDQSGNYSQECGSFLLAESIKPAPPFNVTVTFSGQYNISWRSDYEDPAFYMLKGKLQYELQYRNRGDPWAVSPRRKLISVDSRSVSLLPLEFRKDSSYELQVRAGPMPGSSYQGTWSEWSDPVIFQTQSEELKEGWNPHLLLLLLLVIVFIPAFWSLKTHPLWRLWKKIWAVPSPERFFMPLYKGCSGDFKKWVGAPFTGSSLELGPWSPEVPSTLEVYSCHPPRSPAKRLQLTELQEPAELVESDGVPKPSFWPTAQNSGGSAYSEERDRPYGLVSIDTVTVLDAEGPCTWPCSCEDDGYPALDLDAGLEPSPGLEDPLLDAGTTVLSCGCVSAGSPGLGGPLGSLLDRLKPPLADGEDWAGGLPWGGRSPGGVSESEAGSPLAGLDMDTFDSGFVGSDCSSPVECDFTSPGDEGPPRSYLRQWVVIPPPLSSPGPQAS

B1: 21h10 (designed binder)
chain: DEEELKEIMKEAAECARKELEKLDNTDEDTRWLKITLKKIVRMANRIVRMREREADSKRFEIRMRGLIDIADHVKREFASEDLKEVMERAKSAAQKALGRWL
- Kd (human IL-21 receptor): 0.0737 nM
- Kd (murine IL-21R): 5.17 nM
- Kd [1]: 85.5 nM
- Kd (murine γc): 93.3 nM
